Each block holds one molecule with its values, some of them ahead of it.
Experiments:
human myostatin (GDF8) = human myostatin (GDF8) (human, UniProt O14793 267-375); assay: cell-based or functional assay
TGF-β1 [1] = target: T1, TGF-β1 (UniProt P01137 279-390); assay: cell-based or functional assay
TGF-β1 [2] = target: T1, TGF-β1; assay: SPR indirect binding assay: binder titrated against 5 nM TGF-β1, free TGF-β1 measured on the 1D11 surface
Procedure: (§1) SPR data was generated using a Biacore 3000 instrument (G.E. Healthcare Inc.) using HBS as running buffer. […] A twenty-fold stock concentration of TGF-β (100 nM in 10 mM acetic acid) was used. […] Blank injection samples were made from 10 μl 10 mM acetic acid mixed with 190 uL HBS. […] All sensogram analysis was carried out using Biacore BiaEvaluation software v4.1 (G.E. Healthcare Inc.).

TGF-β1 [3] = target: T1, TGF-β1; assay: SPR (Biacore) solution competition: trap coinjected with 5 nM TGF-β1 over immobilised 1D11 anti-TGF-β antibody; plateau response measures free TGF-β1
TGF-β2 = target: T2, TGF-β2 (UniProt P61812 303-414); assay: SPR (Biacore), 100 nM injected over immobilised TGF-β2
T2 sequence (looked up): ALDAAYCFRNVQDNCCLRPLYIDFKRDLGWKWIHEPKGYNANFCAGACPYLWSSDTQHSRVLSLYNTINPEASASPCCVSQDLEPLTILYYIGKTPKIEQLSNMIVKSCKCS

TGF-β1 [4] = target: T1, TGF-β1; assay: SPR (Biacore) solution competition: binder pre-incubated with 5 nM TGF-β1, injected over immobilised 1D11 anti-TGF-β antibody; plateau response measures free TGF-β1
Procedure: as §1

TGF-β1 or -β3 = assay: SPR (Biacore) solution competition: binder pre-incubated with 5 nM TGF-β (β1 or β3, isoform not named on the sheet), injected over immobilised 1D11 anti-TGF-β antibody; plateau response measures free TGF-β

Molecule: ActRIIB monomer (receptor)
- IC50, neutralization of myostatin in A204 cells with (CAGA)12-luciferase reporter (human myostatin (GDF8)): 0.38 nM

B1: N-His (TβRII)^2 (designed binder)
chain: APMAEGGGQNHHHHHHHHGGSFNPRIPPHVQKSVNNDMIVTDNNGAVKFPQLCKFCDVRFSTCDNQKSCMSNCSITSICEKPQEVCVAVWRKNDENITLETVCHDPKLPYHDFILEDAASPKCIMKEKKKPGETFFMCSCSSDECNDNIIFSEEYNTSNPDIPPHVQKSVNNDMIVTDNNGAVKFPQLCKFCDVRFSTCDNQKSCMSNCSITSICEKPQEVCVAVWRKNDENITLETVCHDPKLPYHDFILEDAASPKCIMKEKKKPGETFFMCSCSSDECNDNIIFSEEYNTSNPD
notes: Two human TβRII ectodomains in tandem with the native 35-residue linker (IPP restored), an N-terminal 8xHis tag and a thrombin site; also called modified N-His (TβRII)^2; bivalent N-His (TβRII)^2
- IC50, neutralization assay in Mv1Lu luciferase reporter cells (TGF-β1 [1]): < 1 nM
- IC50, neutralization of TGFβ1 (Mv1Lu luciferase reporter cells) (TGF-β1 [1]): 0.16 nM
- IC50 (TGF-β1 [2]): 1.1 nM
- IC50 (TGF-β1 [3]): 1.4 nM

B2: N-His TβRII monomer (receptor)
chain: APMAEGGGQNHHHHHHHHGGSFNPRIPPHVQKSVNNDMIVTDNNGAVKFPQLCKFCDVRFSTCDNQKSCMSNCSITSICEKPQEVCVAVWRKNDENITLETVCHDPKLPYHDFILEDAASPKCIMKEKKKPGETFFMCSCSSDECNDNIIFSEEYNTSNPD
notes: Single TβRII ectodomain with an N-terminal His tag, produced in 293 cells; also called monomeric N-His TβRII; N-His TβRII (293 cells)
- binding result (TGF-β2): no binding (tested: 100 nM)
- fold higher IC50 than N-His (TβRII)^2 (TGF-β1 [2]): ~8 fold
- IC50 (TGF-β1 [4]): 8.1 nM

B4: Prototype (TβRII)^2 (designed binder)
chain: TIPPEQKLISEEDLLHVQKSVNNDMIVTDNNGAVKFPQLCKFCDVRFSTCDNQKSCMSNCSITSICEKPQEVCVAVWRKNDENITLETVCHDPKLPYHDFILEDAASPKCIMKEKKKPGETFFMCSCSSDECNDNIIFSEEYNTSNPDGGRHVQKSVNNDMIVTDNNGAVKFPQLCKFCDVRFSTCDNQKSCMSNCSITSICEKPQEVCVAVWRKNDENITLETVCHDPKLPYHDFILEDAASPKCIMKEKKKPGETFFMCSCSSDECNDNIIFSEEYNTSNPDHHHHHH
- IC50, inhibition of TGF-β signaling in Mv1Lu luciferase reporter cells (TGF-β1 [1]): 0.58 nM
- IC50 (TGF-β1 or -β3): 7.6 nM

Results, then the molecule that gave them:

- IC50, neutralization of TGFβ1 (Mv1Lu luciferase reporter cells) (TGF-β1 [1]): 0.04 nM
- fold more potent than N-His (TβRII)^2 in neutralization of TGFβ1 (TGF-β1 [1]): 4 fold
- IC50 (TGF-β1 [3]): 0.6 nM
B3: N-His (TβRIIb)^2 (designed binder)
chain: APMAEGGGQNHHHHHHHHGGSFNPRIPPHVQKSVNNDMIVTDNNGAVKFPQLCKFCDVRFSTCDNQKSCMSNCSITSICEKPQEVCVAVWRKNDENITLETVCHDPKLPYHDFILEDAASPKCIMKEKKKPGETFFMCSCSSDECNDNIIFSEEYNTSNPDIPPHVQKSDVEMEAQKDEIICPSCNRTAHPLRHINNDMIVTDNNGAVKFPQLCKFCDVRFSTCDNQKSCMSNCSITSICEKPQEVCVAVWRKNDENITLETVCHDPKLPYHDFILEDAASPKCIMKEKKKPGETFFMCSCSSDECNDNIIFSEEYNTSNPD
notes: TβRII ectodomain followed by a TβRIIb ectodomain, giving a 60-residue linker, with an N-terminal His tag; also called (TβRII)^2 trap having a 60 amino acid linker

- IC50, neutralization of myostatin in A204 cells with (CAGA)12-luciferase reporter (human myostatin (GDF8)): 0.1 nM
- fold more potent than dimeric ActRIIb-Fc in neutralization of myostatin (human myostatin (GDF8)): 10 fold
B5: (ActRIIB)^2 (designed binder)
chain: SGSEQKLISEEDLLGRGEAETRECIYYNANWELERTNQSGLERCEGEQDKRLHCYASWRNSSGTIELVKKGCWLDDFNCYDRQECVATEENPQVYFCCCEGNFCNERFTHLPEAGGPEVTYEPPPTAPTSGRGEAETRECIYYNANWELERTNQSGLERCEGEQDKRLHCYASWRNSSGTIELVKKGCWLDDFNCYDRQECVATEENPQVYFCCCEGNFCNERFTHLPEAGGPEVTYEPPPTAPTHHHHHH
